Results as given in the Human Domainome abundance scans (Beltran et al. 2025).

B1: Peripheral plasma membrane protein CASK, residues 488 to 569; numbered along this chain, O14936 (parent)
chain: VRLVQFQKNTDEPMGITLKMNELNHCIVARIMHGGMIHRQGTLHVGDEIREINGISVANQTVEQLQKMLREMRGSITFKIVP

Variants of: B1
Test: abundance fitness (aPCA) (normalised: wild type 0, dead -1); higher = more abundant; growth selection in yeast, the domain comes from the species named
Settings: Homo sapiens

Abundance fitness, by site and new letter:
R50: N -0.054, P -0.774, Q -0.018, S -0.079, T -0.028, W -0.118, Y -0.174
E51: A -0.096, C -0.34, F -0.441, G -0.048, L -0.442, R -0.264, S 0.102, T -0.301, V -0.714
I52: L -0.115, N -0.199, R -0.649, T -0.141, V -0.036
N53: A -0.308, C -0.208, D -0.27, E -0.327, G -0.188, H -0.7, I -0.8, K -0.816, L -0.903, M -0.357, P -0.719, Q -0.186, R -0.529, S -0.183, T -0.567, V -0.932, W -0.972, Y -0.525
G54: A -0.191, C -0.254, E -0.076, F -0.043, H -0.076, L -0.636, M -0.299, N -0.16, P -0.911, Q -0.085, R -0.193, S -0.071, T -0.17, V -0.797, W -0.549, Y -0.056
I55: A -0.016, C 0.026, D -0.035, E 0.026, F -0.065, G -0.124, H -0.04, K -0.001, L -0.041, M 0.008, N -0.113, P -1.05, Q 0.035, R 0.007, S -0.033, T -0.003, V -0.035, W -0.074, Y -0.061
S56: A 0.014, D 0.023, E -0.018, F -0.229, G -0.02, H -0.09, I -0.155, K 0.02, L -0.08, M -0.102, N -0.032, P 0.009, Q -0.06, R -0.052, T -0.028, V -0.064, W -0.275
V57: A -0.061, C -0.046, D -0.915, E -0.965, F -0.42, G -0.758, H -0.818, I 0.007, K -0.745, L -0.126, M -0.079, N -0.809, P -0.041, Q -0.8, R -0.973, S -0.158, T 0.027, W -0.854, Y -0.578
A58: C -0.042, D -0.037, E 0.017, F -0.087, G -0.01, H -0.075, I 0.02, K 0.053, L -0.052, M -0.038, N -0.076, P -0.327, S -0.035, T -0.017, V -0.025, W -0.104
N59: A -0.047, C -0.114, D -0.038, E -0.001, F -0.016, G 0.02, H -0.006, I -0.324, K -0.068, M -0.099, Q -0.09, R -0.09, S -0.045, T 0.003, V -0.164, W -0.157, Y -0.1
Q60: A -0.045, C -0.01, D -0.154, E -0.085, F 0.013, H -0.014, L -0.051, M -0.047, N 0.005, P -0.984, R -0.007, S -0.042, T -0.09, V -0.118, W -0.063, Y -0.022
T61: A -0.084, C -0.129, E -0.037, F -0.457, G -0.015, H -0.074, I -0.642, K -0.054, L -0.41, M -0.294, N 0.011, P -0.048, Q -0.047, R -0.095, S -0.029, V -0.329, W -0.853
V62: A -0.007, C -0.044, D -0.031, E 0.015, F -0.238, G -0.067, H -0.131, I -0.025, K -0.114, L -0.018, M -0.052, N 0.01, P -0.032, Q -0.068, R -0.1, S 0.003, T -0.007, W -0.154, Y -0.172
E63: A -0.048, C -0.08, F -0.023, G -0.027, I -0.108, L -0.092, M -0.13, N -0.043, Q -0.009, R -0.121, S -0.035, T -0.109, V -0.098, W -0.123, Y -0.079
Q64: C -0.004, D 0.007, E -0.008, F 0.007, G -0.064, I 0.003, K -0.018, L -0.08, M -0.042, N -0.025, P -0.334, R -0.066, S -0.021, T -0.025, V -0.061, W -0.093, Y 0.005
L65: A -0.166, C -0.048, D -1.07, E -0.889, F -0.23, G -0.817, H -0.402, K -0.878, M -0.057, N -0.318, P -1.02, Q -0.33, R -0.449, S -0.183, T 0.006, V 0.025, W -0.049
Q66: A -0.04, C -0.055, E 0.018, F -0.236, G -0.038, H -0.043, I -0.094, K -0.128, L -0.094, M -0.012, N -0.016, P -0.521, R -0.104, S -0.012, T -0.012, V -0.141, W -0.228, Y -0.038
K67: A -0.022, C 0.013, D 0.02, E 0.009, F -0.023, G -0.014, H 0.029, I -0.06, M -0.029, N 0.003, P -0.292, Q -0.054, S -0.038, T 0.001, V 0.002, W -0.119, Y -0.064
M68: A -0.02, C -0.026, D 0.054, E -0.038, F -0.028, G -0.048, H -0.019, I -0.068, K 0, L -0.032, N -0.012, P -0.647, Q -0.014, R 0.002, S -0.004, T -0.039, V -0.026, W -0.049, Y -0.045
L69: A -0.355, C -0.093, D -0.73, E -0.537, F -0.101, G -0.443, H -0.777, I -0.08, K -0.9, M -0.029, N -0.609, P -0.944, Q -0.594, R -1, T -0.097, V -0.038, W -0.308, Y -0.357
R70: A 0.012, C -0.029, D 0.038, E 0.016, F 0.002, G 0.006, H 0.02, I -0.078, K -0.02, L 0, M -0.019, N -0.024, P -0.229, Q -0.023, S -0.015, T -0.02, V -0.018, Y -0.039
